# Experimental data as given in paper PMC12556802, “Rules of engagement: Determinants of chemokine receptor activation and selectivity by CCL27 and CCL28” (The Journal of Biological Chemistry, 2025).
# Like-named read-outs stand apart in the source and are kept apart here.
# B1: NT28-CCL27 (ligand)
# chain: ILPIASSCCTQLYRKPLSDKLLRKVIQVELQEADGDCHLQAFVLHLAQRSICIHPQNPSLSQWFEHQERKLHGTLPKLNFGMLRKMG
# B2: F-CCL27 (ligand)
# chain: FFLLPPSTACCTQLYRKPLSDKLLRKVIQVELQEADGDCHLQAFVLHLAQRSICIHPQNPSLSQWFEHQERKLHGTLPKLNFGMLRKMG
# B3: F1A-CCL27 (ligand)
# chain: ALLPPSTACCTQLYRKPLSDKLLRKVIQVELQEADGDCHLQAFVLHLAQRSICIHPQNPSLSQWFEHQERKLHGTLPKLNFGMLRKMG
# B4: CCL27 (ligand)
# chain: FLLPPSTACCTQLYRKPLSDKLLRKVIQVELQEADGDCHLQAFVLHLAQRSICIHPQNPSLSQWFEHQERKLHGTLPKLNFGMLRKMG
# Key:
# CCR10-RlucII [1] = target: T1, CCR10-RlucII (human, UniProt P46092 1-362); assay: cell-based or functional assay
# T1 sequence (looked up): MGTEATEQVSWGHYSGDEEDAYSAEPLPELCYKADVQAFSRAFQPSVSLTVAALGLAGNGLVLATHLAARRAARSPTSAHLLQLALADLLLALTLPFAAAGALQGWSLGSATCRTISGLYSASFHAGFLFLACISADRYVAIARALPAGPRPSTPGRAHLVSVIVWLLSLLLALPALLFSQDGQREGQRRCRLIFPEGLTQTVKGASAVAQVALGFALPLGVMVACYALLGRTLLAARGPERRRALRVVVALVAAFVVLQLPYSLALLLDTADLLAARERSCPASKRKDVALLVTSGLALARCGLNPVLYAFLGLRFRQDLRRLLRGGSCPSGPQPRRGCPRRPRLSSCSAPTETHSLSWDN
# [2] = substrate: T2, CC chemokine receptor 10 (CCR10) on L1.2 cells (human) (UniProt P46092)
# T2 sequence: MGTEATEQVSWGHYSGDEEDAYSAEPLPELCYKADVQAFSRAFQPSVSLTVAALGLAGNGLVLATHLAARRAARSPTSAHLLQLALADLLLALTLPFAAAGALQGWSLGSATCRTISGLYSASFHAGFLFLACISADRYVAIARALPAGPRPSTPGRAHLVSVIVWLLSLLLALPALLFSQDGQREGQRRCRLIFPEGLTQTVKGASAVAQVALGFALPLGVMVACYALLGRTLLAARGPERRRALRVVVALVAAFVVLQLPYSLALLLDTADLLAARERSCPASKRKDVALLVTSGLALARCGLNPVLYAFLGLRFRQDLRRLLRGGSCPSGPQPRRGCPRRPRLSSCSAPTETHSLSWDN
# [3] = substrate: T2, ; remark: listed apart in the source
# CCR10-RlucII [4] = target: T1, CCR10-RlucII
# [5] = substrate: T2, ; remark: listed apart in the source
binder,measurement,setting,value
B1,"β-arrestin2 recruitment to CCR10-RlucII by BRET in HEK293 cells, efficacy relative to WT CCL27",CCR10-RlucII [1],1.5 fold
same,"β-arrestin2 recruitment to CCR10-RlucII by BRET in HEK293 cells, potency relative to WT CCL27",CCR10-RlucII [1],3.5 fold
B2,"bare filter chemotaxis of L1.2/CCR10 cells, efficacy relative to WT CCL27",[2],1.1 fold
same,"bare filter chemotaxis of L1.2/CCR10 cells, potency relative to WT CCL27",[2],10 fold
same,"transendothelial migration of L1.2/CCR10 cells, efficacy relative to WT CCL27",[2],2.7 fold
same,"transendothelial migration of L1.2/CCR10 cells, potency relative to WT CCL27",[2],3 fold
same,"internalization of CCR10 on L1.2/CCR10 cells (3.1-100 nM chemokine, 45 min, 37 °C), percent of receptor remaining on the surface at 3.1 nM",[3],30%
same,"β-arrestin2 recruitment to CCR10-RlucII by BRET in HEK293 cells, EC50 of the chemokine",CCR10-RlucII [4],19 nM
same,"β-arrestin2 recruitment to CCR10-RlucII by BRET in HEK293 cells, Emax relative to WT-CCL27",CCR10-RlucII [4],1.8 fold
B3,"migration of L1.2/CCR10 cells, dose-response (0.1 nM to 1 μM), reduction in efficacy relative to WT CCL27",[5],35%
same,"migration of L1.2/CCR10 cells, dose-response (0.1 nM to 1 μM), reduction in potency relative to WT CCL27",[5],10 fold
same,"transwell migration of L1.2/CCR10 cells at 50 nM chemokine, reduction compared to WT CCL27",[5],85%
B4,"β-arrestin2 recruitment to CCR10-RlucII by BRET in HEK293 cells, EC50 of the chemokine",CCR10-RlucII [1],89 nM
